We go through 15 sequences from the DeepSol protein solubility set.

The data set in a line: soluble on expression in E. coli; label from the status in PepcDB or PDB records.
Take “MILLIDNYDSFTFNLEQYLAEFSEVVVKRNDAADLIKIAALADGIVLSPGPGKPSDAGLLEEVVAKFAKEKPLLGICLGHQAIGEVFGGEVKRAAKIRHGKVSTMRQTAGAIFANLPEEMPVMRYHSLIVDKNTLPDVLEVLAIATDDSEVMAMKVKDYPVYGLQFHPESIGTNDGKQMMENFIHIVEGARENGNLTTKSI”: the “soluble on expression in E. coli” value is on record as “not soluble”.
As for “MNVVSNTQLLEQRIADFFTLSDEHKKARVLLDTLACSCPARIFGGMVRDLGLYGVDGFSSDLDIVIGRSREELFQTLAELPVKQLRFNKFGGIRFRYHDFEFDIWNLNETWAFQEKLIFCEDESSLLNEVA”, the entry is “not soluble”; as for “MNPKFRSFFSKNAEIFRFSLSENPEIFRFSRHFSMKSFYDIIEIDEIATFDDVKKAYFRFLRKDNRPIYDSWLREQRLRETQGTIGETIELEYGERDVDEYCRKKIPKKNIFSKKKKRFFRTFSNRPNPRHGNLRVLLVLPLSRNPSLLHHHHHPRHPLKKMSSLDESSTKILVLGDSCVGKTSLCHCIAGGGEPPGGGRSFDSTIGATVVMAWHEYRAGTPEQRTELLELWDIGGMVAHRQAAQVFFEGAVGAILVHDLTNKRSEENLATWLTMLDGKPRGAAPKSSKDPAAVALKVDIESCNIPVLIVGTKADLVPHKGPVSYDRYDGLGNANSAISVWKPRNRRKNSKKPMKIGRKLVVEKEKVKKFGRQYLRRGLGFSFSSARWHKEMTEARNVQKSMKMVIFRLFSMGGRN”, “not soluble”.
With “MVIEESGNESEASVAPKRRRAPKGDMRRKALLDAATVVFARDGYSSASMREVALLAGITTVGLLHHFPNKEALLSALLERRDQRVTSRFQDMVTELTLDGFLKFLKLSMSFSVENADECQAALLMNTESLSPSHPACSWHRERFQMTHEHARGHLNALIEAGEVRADINVKALAQEIFSVMDGLQIQWLRSPDDVDVMAVFEVYVQRLGRDIKAHP”, the “soluble on expression in E. coli” value is “not soluble”.
In the case of “MTERLLVGVIVGSHGVRGLVRVKSFTQDEMALCDYGPLSDETGTRRFAVEVRNQAKGVVICQIPGVSDRTAADALKGTRLFLDRAALPADALEEDEYYHADLIGLPVDLVDGGRLGVVHSVHDFGAGDMLEVTLAQGRRSVLLPFTKAVVPLVDVKAGRLVADPPLGLLDDTRPPAGVEGEVEEDPGVGIDEDGDGKGGASLEHHHHHH”, the “soluble on expression in E. coli” value is “soluble”.
Regarding “MAHHHHHHMSIPLENWGQLKLSVAKPELKSEDGGDVKRDECVLELLALPKGKAKDNPNYVPRPILSIPISAIASASGTTKNDVSLTMRPAATAGAEDLELRSIRFAVPNVCVGYEETEMAGKVILQDIQSSMMQYQEQFLQRHGSGGQGGKLLALAAMGSGQAKHTDEVVVATFDDVLLSYPSGKYKIVISNYNVVLEDKKKGTSSGLLSFSLSEIQNLFLCDVPVYFSPTEEVDANSLPQYVVLILKNPLKIRSTAYNHVVISCPAGLTLDEEHPWRCELKTQDEINKTLQLPPSKEGEEPPLVPTMSGRVSDILTRTFKAIAKVPAYGGINKEYKSVLTSHSQSSMRCLFHGAEGLLYIVNSGFLYLHRPATRILFNEVARVELDESESGQATFQLTVFATGAKGDDKYVFSGIAKEEKNGLLSYLATKVKVVHTGGDAMESDDDDEKDDTSDEDESDDSDYDDSDTEDDDSSDDGGDHDSSRKRKREDKKHEKDKKHKKDKKHKKDKKHKKDKKHKKDKKHKKDKKHKKDKKHKKDRKHKKDKHEKSDA”, the “soluble on expression in E. coli” value is “soluble”.
The value for “MTNMDNYCVIMGGGIGSRFWPFSRKTLPKQFLDFFGTGRSLLQQTFDRFQKVIPTENILIVTNAMYADLVKEQLPELDEKQILLEPARRNTAPCIAWAAYHIRALNPNANIVVAPSDHLILKEEEFRAAIIKGLEFVSHSEKLLTLGIKPNRPETGYGYIQIDEPTGDGFYKVKTFTEKPELELAKVFVESGEFYWNSGLFMWNVNTIIKAAEILLPELVSKLAPGKNIYATDKEKAFIEENFPACPNVSIDFGIMEKADNVYVSLGDFGWSDLGTWGSLYDLSERDREGNVTLKSHSLIYNGKDNMIVLPKGKLAVIDGLEGYLIAESDNVLLICRKDEEHSIRKYVNDAQMQLGDDFI” was “not soluble”.
For the sequence “EHAPATTGPLPSAPRDVVASLVSTRFIKLTWRTPASDPHGDNLTYSVFYTKEGIARERVENTSHPGEMQVTIQNLMPATVYIFRVMAQNKHGSGESSAPLRVETQPE”, the “soluble on expression in E. coli” value is given as “soluble”.
As for “MRNVFCIGELLIDFVCRNTNVSLVNGSNFEKKAGGAPANVAAAITKLGGHATFMGQVGNDPFGEFLEQTLQHAHVDTSMLIKDKQTTLAFVSIDQNGERDFTFMRGADGEYHFNSIDLSKIKTNDLIHFGSATALLSSPLKDTYFQLLQHARESGQFISFDPNYRNALITNTEQFIQDCLTFIKHAHFVKVSQEEAIMLSKESDLQQSALKLLNHGAKAVAITLGKDGTLLATKDKQTIVPSISIQQVDTTGAGDAFVGAMLYQIAKSEQMFLHNFEGLTTFISFANKVGALTCTNYGAISSLPSLTDVKAYE”, the entry is “not soluble”; as for “MNRISTSSVNSSFNYTAPTEEAQNRFASAPDNSPLVVTTTSIAQASEGLQRPGATLSMQAQRLRQLMGSPSEQCRRDTMLAKAFDAQRLNINTQAGSSNSPHLNALNTLQQRHFKPAAGGLEIPVTSNSLLGGGRQVYQIGSSSRELSHRPVNDQDRAPFRALERLHAELFRGGPIEFVPRGSNVLASNVRDVDMDEFDVINSKDGCQGIGTTGLGPCIAVCARGMDREGLPVLGVYHHSGIGSPEDTMATLDQAMRDKGALQIKYSLVGGMIMPKEEEAGSYDDEQSFLALKGSYSIEGARLHVSEGEEDVHTGEDNSVNVLLMPDRVLYGRDTLYC”, “not soluble”.
As for “MGSDKIHHHHHHMTQLPNFSQSLSQLIACPSISSTQPSWDQGNKEVIQLLATWFEQLDFNIEIQAVPNTSNKFNLLAKLGSGEGGLLLAGHSDTVPFDENRWQSNPHTVVNQDDKFFGLGTCDMKGFFAFILQVCKNLRADQLKKPLYILATADEETTMAGARFFAKSQAIKPDVAIIGEPTNLVPVVMHKGHMSHRISVEGKSGHSSKPNLGINAIEIMYKVIGQLIELKEKFQLNYENQAFDVPAPTLNLGAISGGDNANRICGHCHLDIDLRSLPGMSDDELINWLSEALKPLAELYPGRISFEEMHPSSPSFEQKKPSTLIDIAQEISGHSCCAVNYATEAPYIQQLGCQTIVLGPGSIDQAHQPNEFLAHSEIDKTEKLLTKMIQHYCL”, the entry is “not soluble”.
Regarding “MSVEEAALALWAKSGNPFHPLLAHMLDTAAVALAVLRMEPPRTRALYAEDWGLPEEGALAWAAALVGLHDLGKASPVFQAGWEEGKERVQRAGLPFGELLDWVAHGVFTELFLRRLLKEKGLPERAANDLAAALGAHHGFPANAEEKSRARRHLRTEDPLWKEARRWLLEEVFRRLGAPLPPSQGNGEARPEAVLRVMALASFADWVASDPSLFPYGRDPRRGDYLKEALRLAQEALNRLGWPAFAKAQRREFGELFPYIPKPNALQESVPALLEGACTPVLLLVEAPMGMGKTEAALYAHHLLQAGLGHRGLYVALPTQATANGLFPRVRGFLERLGEGSRLELQLQHGTALLNPHYAGLLERAAPRQVGEEEEGGAVASAWFSARKRAMLAPYGVGTLDQALLGVLRVKHHFVRLWGLMNRVVVLDEVHAYDVYTSGLLQALLRWLRALGSSAVVMTATLPPSRRRALLEAWAGEEVEGQDLGPYPRVVLVGEGVKARSLPPAREVEVALEVLREVDVEPLAQRLKGALPGAVGAIVNTVDRAQDLYRALGEGTPLTLEELARRLGGISGGQAWEEVRQALPERGGEVVGKVLTDGTLVFLLHARFPAEERALRGSVVLALFGKGGPRPPRAILVATQVAEQSLDLDFDLLYTDLAPIDLLFQRSGRLHRHERPRPEEHARPRLLLGVPEDLDFGKPLYWDKVYEDYVLLATWRALSGRDRLRVPGDLEALLEEIYEGENPESFPEGLRERAKKSLKALQERRDREANTARRLSLSELDRLLAYWDEGALVAQERLEDDEEKAETQRLLTRLGDPSVAVVPLFRVGEGLFLDREGRRRAPLKGEVSREEAEALFRRAVRLSRFPLPQELLKEEPPPAWRKSGLLRGLRPLEVGRVFRSGERAFQVELDPELGVVYLPV”, the “soluble on expression in E. coli” value is “soluble”.
“MPDAVVIGAGPNGLVAANLLADAGWSVTVLEEQDEPGGAVRHDNGVDPDFTTDLFSSFYPLAAASPVLAGLHLEREGLRWSHAPRVLAHPLSDGRCAVLGRDLDDTAASLDTFADGDGAAWRELHDVWERLRPDLLDALFTPFPPVRAGARLAARLRAGGGLRLARSLVLPVRRLGEEEFRGEGGRLLLAGNALHADLAPEAAGSGGFGWLMSMLGQTYGFPVPVGGSGALTSALTQRLHRRGGVLRCGQRVSEVVVRQGRAVAVRTAGGETVPARRAVLADVSVPALYGTLVGSAHLPAQVLADLRRFQWDFATFKVDWALDGPVPWQADAASAAGTVHLADGVDELTRFAAQIAMRQVPDRPFALFGQMTTADATRSPEGTEAAWAYTHVPHRIAGDAGDAGLAGTWDAREQELMADRVERQVERFAPGFRSLIRARRILAPPTLQSLNANLYGGAINGGTTALHQQLVFRPIPGTGRPETPVANLFLASAGAHPGGGVHGAPGANAARAALRKHLPSGLTRAQRLLTRRNRKGERDTGFGGLEHHHHHH”: the “soluble on expression in E. coli” value was “not soluble”.
As for “MSLTQRITMEDIARQSGVSLATVSLVLRDKPGINDETRRRVLDIARDLGYRKRLNHEKLVSQSLHNAGVIVKASIGDDSPLTNPFYAPIVAGIEAACRKMHINLMYATVPVDMDNHPQEMPRLLSEDHLDGVLLVGAFADATITKLLQREGIPAVLVDGYSHEHVYDSVVSDNFRAAYEAVSYLISYGHRHIGLIGTTKEAYPSIAERRKGYIQALTDHGIHDQYFGDCLLTMHEGSDTSSILLQRHPQITALFCANDMMAIGATQAARALHRQIPQDLSIIGFDNIDLAQHVAPALTTMHVDKVSMGRFAVQLLANRAEYPDQAPATVSLRPRLLERQSVQREGHHHHHH”, the entry is “soluble”.
Turning to “MSELLSSVSQQLLAPGGLELDSLPGILHELNGPGIDAADLYFQSQVSESWMLEDGIVKEGSFNLDQGVGVRAQSGEKTGFAYSNAITAEALKQAAVAARSISRAGQNGSVQAFKAVVPARLYAGENPLDVLSRAEKVELLKQIDAATRALDPRIQQVTVSMAGVWEQILVAASDGSLAADIRPLVRFNVSVIVEQNGRRERGGHGGGGRTDYRYFLQEDRAMGYAREALRQALVNLEAIPAPAGTLPVVMGAGWSGVLLHEAVGHGLEGDFNRKGSSAYSGRVGEKVASSLCTIVDDGTLAGRRGSLSVDDEGTPSNCNVLIENGVLKGYMQDKLNARLMGVARTGNGRRESYAHLPMPRMTNTYMLAGESDPQEIIASVEKGIYCANLGGGQVDITSGKFVFSTSEAYLIENGRITTPVKGATLIGNGPEAMSRVSMVGNDLALDSGVGTCGKDGQSVPVGVGQPTLKIDAITVGGTGA”, the “soluble on expression in E. coli” value is on record as “not soluble”.
